# Experiments:
# [1] = target: Native pancreatic polypeptide (PP)
protein,measurement,setting,value
purified porcine DPP-4 (dipeptidyl peptidase-4) (protein) DSRRTYTLTDYLKSTFRVKFYTLQWISDHEYLYKQENNILLFNAEYGNSSIFLENSTFDELGYSTNDYSVSPDRQFILFEYNYVKQWRHSYTASYDIYDLNKRQLITEERIPNNTQWITWSPVGHKLAYVWNNDIYVKNEPNLSSQRITWTGKENVIYNGVTDWVYEEEVFSAYSALWWSPNGTFLAYAQFNDTEVPLIEYSFYSDESLQYPKTVRIPYPKAGAENPTVKFFVVDTRTLSPNASVTSYQIVPPASVLIGDHYLCGVTWVTEERISLQWIRRAQNYSIIDICDYDESTGRWISSVARQHIEISTTGWVGRFRPAEPHFTSDGNSFYKIISNEEGYKHICHFQTDKSNCTFITKGAWEVIGIEALTSDYLYYISNEHKGMPGGRNLYRIQLNDYTKVTCLSCELNPERCQYYSASFSNKAKYYQLRCFGPGLPLYTLHSSSSDKELRVLEDNSALDKMLQDVQMPSKKLDVINLHGTKFWYQMILPPHFDKSKKYPLLIEVYAGPCSQKVDTVFRLSWATYLASTENIIVASFDGRGSGYQGDKIMHAINRRLGTFEVEDQIEATRQFSKMGFVDDKRIAIWGWSYGGYVTSMVLGAGSGVFKCGIAVAPVSKWEYYDSVYTERYMGLPTPEDNLDYYRNSTVMSRAENFKQVEYLLIHGTADDNVHFQQSAQLSKALVDAGVDFQTMWYTDEDHGIASNMAHQHIYTHMSHFLKQCFSLP,"DPP-4 stability (degradation by purified DPP-4, 5 mU, 0-8 h; RP-HPLC and MALDI-ToF)",[1],<2 h
same,"DPP-4 stability (degradation by purified DPP-4, 5 mU, 0-8 h; RP-HPLC and MALDI-ToF)",[P^3]PP,>8 h
